This is an account of results in PMC12636033, “Chemical Engineering of Transcription Factors Uncovered Cell-Permeable μMax Modulators”.

The labels stand for the following.
B1: dBr_Jan07_16045 (dsDNA)
DNA 1: TACATATTGCCCTTTGGGTGAGTCACTCATTTTGGGGTCTGTGTTCCGTTGTCCGTGCTG
DNA 2: CAGCACGGACAACGGAACACAGACCCCAAAATGAGTGACTCACCCAAAGGGCAATATGTA
B2: dBr_Jan07_20880 (dsDNA)
DNA 1: GTCGGTTAACCTACTGTAACGTCGCTTTCGGTGTGTGTCTGTGTTCCGTTGTCCGTGCTG
DNA 2: CAGCACGGACAACGGAACACAGACACACACCGAAAGCGACGTTACAGTAGGTTAACCGAC
B3: dBr_Jan07_08887 (dsDNA)
DNA 1: ATAGCCGCGTGGCATATGGTCCGGCGACCCCCTCTCGTCTGTGTTCCGTTGTCCGTGCTG
DNA 2: CAGCACGGACAACGGAACACAGACGAGAGGGGGTCGCCGGACCATATGCCACGCGGCTAT
B4: dBr_Jan07_19753 (dsDNA)
DNA 1: ACACGTGTATGTAACATGCGAGCACTTCGTGCGCCTGTCTGTGTTCCGTTGTCCGTGCTG
DNA 2: CAGCACGGACAACGGAACACAGACAGGCGCACGAAGTGCTCGCATGTTACATACACGTGT
B5: dBr_Jan07_04404 (dsDNA)
DNA 1: ATCCTCTTGAAACACTACAAGTTTCGTTAAAAAAAGGTCTGTGTTCCGTTGTCCGTGCTG
DNA 2: CAGCACGGACAACGGAACACAGACCTTTTTTTAACGAAACTTGTAGTGTTTCAAGAGGAT
B6: dBr_Jan07_41703 (dsDNA)
DNA 1: CATTCATGTTGAGATAACACGTGGTTGGGCGTTAATGTCTGTGTTCCGTTGTCCGTGCTG
DNA 2: CAGCACGGACAACGGAACACAGACATTAACGCCCAACCACGTGTTATCTCAACATGAATG
B7: dBr_Jan07_06649 (dsDNA)
DNA 1: TAAAGGTCACCAATAGTCATTGCAGACTGGGACAATGTCTGTGTTCCGTTGTCCGTGCTG
DNA 2: CAGCACGGACAACGGAACACAGACATTGTCCCAGTCTGCAATGACTATTGGTGACCTTTA
B8: dBr_Jan07_06986 (dsDNA)
DNA 1: CAATAGACGTTGCAATTTGGCCTGACAGCTACGGAAGTCTGTGTTCCGTTGTCCGTGCTG
DNA 2: CAGCACGGACAACGGAACACAGACTTCCGTAGCTGTCAGGCCAAATTGCAACGTCTATTG
B9: dBr_Jan07_30747 (dsDNA)
DNA 1: GGTACTACGATATAGGGATTACGCACCGCAAGGAGCGTCTGTGTTCCGTTGTCCGTGCTG
DNA 2: CAGCACGGACAACGGAACACAGACGCTCCTTGCGGTGCGTAATCCCTATATCGTAGTACC
B10: dBr_Jan07_34487 (dsDNA)
DNA 1: AACAGCCCACCCCTTATCAACGCGGCGCTTTCAGGCGTCTGTGTTCCGTTGTCCGTGCTG
DNA 2: CAGCACGGACAACGGAACACAGACGCCTGAAAGCGCCGCGTTGATAAGGGGTGGGCTGTT
B11: dBr_Jan07_34312 (dsDNA)
DNA 1: TTCAGACTGGCGCATGGTGCCCTCTGAACCCTGAATGTCTGTGTTCCGTTGTCCGTGCTG
DNA 2: CAGCACGGACAACGGAACACAGACATTCAGGGTTCAGAGGGCACCATGCGCCAGTCTGAA
B12: dBr_Jan07_39257 (dsDNA)
DNA 1: CAAACAGGCCGGTCTCTCGGTACAGTCACGTGTTCAGTCTGTGTTCCGTTGTCCGTGCTG
DNA 2: CAGCACGGACAACGGAACACAGACTGAACACGTGACTGTACCGAGAGACCGGCCTGTTTG
B13: dBr_Jan07_41473 (dsDNA)
DNA 1: TACTCGAAGCGTAAAAAAGACCGGGTAGGAAGCCAAGTCTGTGTTCCGTTGTCCGTGCTG
DNA 2: CAGCACGGACAACGGAACACAGACTTGGCTTCCTACCCGGTCTTTTTTACGCTTCGAGTA

WT Max, sequence (P61244 other isoform, or with tags, fused parts or gaps M65Nle): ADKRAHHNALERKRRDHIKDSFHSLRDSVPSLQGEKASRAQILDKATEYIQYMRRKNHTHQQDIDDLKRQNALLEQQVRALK

The data set concerns the target WT Max (Homo sapiens, UniProt P61244-2 13-93, M65Nle, norleucine written as M; other non-natural residues written as X). As to the kind of experiment: PBM; 50-200 nM protein; PBS, 2% milk, BSA, salmon testes DNA, 0.02% Triton X-100. Particulars: chain copies: 2; label: surface-attached array probe.
On to B1, for which the binding signal is -0.17 robust z of log adjusted intensity (ours), mean of two arrays.

Turning to B2, the binding signal was -0.14 robust z of log adjusted intensity (ours), mean of two arrays.

Take B3: the binding signal is 7 robust z of log adjusted intensity (ours), mean of two arrays.

As for B4, the binding signal was 3.43 robust z of log adjusted intensity (ours), mean of two arrays.

As for B5, the binding signal is -0.11 robust z of log adjusted intensity (ours), mean of two arrays.

On to B6, for which the binding signal is 5.69 robust z of log adjusted intensity (ours), mean of two arrays.

B7: the binding signal is -0.27 robust z of log adjusted intensity (ours), mean of two arrays.

B8: the binding signal is -0.17 robust z of log adjusted intensity (ours), mean of two arrays.

Take B9: the binding signal was -0.4 robust z of log adjusted intensity (ours), mean of two arrays.

Take B10: the binding signal was -0.28 robust z of log adjusted intensity (ours), mean of two arrays.

Consider B11, for which the binding signal is -0.02 robust z of log adjusted intensity (ours), mean of two arrays.

Take B12: the binding signal is 4.93 robust z of log adjusted intensity (ours), mean of two arrays.

For B13, the binding signal was -0.29 robust z of log adjusted intensity (ours), mean of two arrays.
